Data published in patent publication US20250034621, “LOCKED APTAMER HAIRPIN INTEGRATED HYBRIDIZATION CHAIN REACTION FOR RAPID, INSTRUMENT-FREE BIOMARKER DETECTION” (The Texas A&m University System, published 2025).

Biological target: cardiac troponin I (cTnI) (UniProt P19429 P19429:2-210)
Test: cTnI-dependent opening of aptamer on magnetic particles, supernatant fluorescence of tagged HTG-H1 falls with cTnI; 0.5 ng/mL not distinguishable from blank; native PAGE HCR products also cTnI-dependent (p77, FIG. 6B); SERRS LOD 0.5 pg/mL in serum (p85), colorimetric hyperbranched HCR LOD 0.117 ng/mL (p104); high-salt buffer 20 mM Tris pH 7.6, 1000 mM NaCl, 5 mM KCl, 2 mM MgCl2, 1 mM CaCl2
Details: tags: Genscript (SERRS studies); label: biotin (on streptavidin magnetic particles)

Chain of cardiac troponin I (cTnI) (P19429 2-210, one chain of several): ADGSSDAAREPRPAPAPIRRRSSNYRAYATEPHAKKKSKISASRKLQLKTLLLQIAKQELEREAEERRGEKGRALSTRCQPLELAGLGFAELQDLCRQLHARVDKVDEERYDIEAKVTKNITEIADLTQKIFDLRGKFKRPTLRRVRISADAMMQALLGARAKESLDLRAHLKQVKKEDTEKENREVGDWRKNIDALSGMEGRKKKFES

B1: locked Tro4 aptamer-initiator (Tro4 + A8 spacer + HCR initiator + blocker) (ssDNA)
DNA: TTTTTCGTGCAGTACGCAACCTTTCTCATGCGCTGCCCCTCTTAAAAAAAAGCAGATCCTAAGCCGCACCCAATTAAGGGGCAGCGCATGAGAAAGGTTCCGTA
B1: binds.
